Molecular target: dCas9 (SpCas9 D10A/H840A) D10A;H840A (Streptococcus pyogenes) (UniProt Q99ZW2)
Assay: SPR
Conditions: SPR: PBS, 0.005% Tween-20, 25 C, BLI: PBS, 0.005% Tween-20, 1 mM MgCl2, 50 ug/ml heparin, SwitchSENSE: 20 mM Tris pH 7.4, 100 mM KCl, 5 mM MgCl2, 0.01% …

Substance | Kd (DNA with 7 RNA residues (1,15,16,19,22,23,24)) [nM] | Kd (dCas9 immobilised, 1.2-100 nM titration) [nM] | Kd (dCas9 immobilised, kinetic 1:1 fit) [nM]
AGCACTGCACGCCGUAGGUCGUUUTAGAGCTATGCTGTTTTG [GFP cr1 crHyb with tracrRNA] | < 1 |  | 
tracrRNA (88 nt) |  | 6.2 | 0.308

Reference: article PMC5694763
